B1: LINE1-full (parent)
chain: UACGUAGGUGGUUUUCCCCUGAUAGUGCUAAGGGGGCCUGGAAGUUUGGACUGGGCAGAGCUCAACACAGCGUGGCAAAGUGGCUGUGGCUAGACUGCCUCUCUGGAUUCCUCGUCACUCAGCAGGGCAUCUCUGAGAGAAAUGCC

Variants of: B1
Assay: self-cleavage, relative activity (ratio to wild type); higher = more cleavage; in vitro, sequencing; the parent is a self-cleaving ribozyme

Variant | self-cleavage
U62A A92U | 0.03
U62A A92G | 0.07
G60A A69U | 0.03
G60A A69G | 0.05
C61U G106A | 0.02
U62A A142G | 0.02
G60U A117G | 0.04
G60A U85C | 0.01
C61U A140G | 0.03
U62A A129G | 0.06
A59U U96C | 0.24
U62A A141G | 0.05
U62C C90U | 0.05
U62C A140U | 0.04
U62C A94G | 0.11
U62C A94C | 0.07
A59U G127A | 0.65
U62A U134A | 0.07
U62C C111A | 0.02
U62A G93U | 0.03
U62A U143G | 0.08
U62A U143C | 0.05
U62A A138G | 0.06
U62A A138U | 0.06

Variant | self-cleavage
C61A A129U | 0.03
U62A G144A | 0.05
C61G C145U | 0.03
G60A A140U | 0.03
U62C A141U | 0.03
G60A U91C | 0
G60A A141G | 0.02
U62C A65U | 0.01
C61A U81C | 0.04
U62A A117G | 0.08
U62A A117C | 0.05
C61U A141G | 0.05
G60C U115C | 0.02
U62A U104C | 0.1
U62A U104A | 0.04
G60U U91C | 0.01
G60A G72A | 0.01
C61U A79G | 0.01
A59U U87C | 0.22
G60A A92G | 0.03
U62C A64U | 0.05
U62C A64C | 0
A59U U112C | 1.51
A59U U112A | 0.83

Variant | self-cleavage
A59U G75A | 0.51
C61U U100A | 0.01
U62A C128U | 0.03
U62A C103A | 0.04
G60C U102C | 0.06
U62C A136U | 0.05
U62C A136C | 0.1
C61U G82A | 0.02
A59U U134C | 0.92
U62C A138U | 0.01
A59U U132C | 0.71
U62A C66U | 0.01
G60A U143A | 0.05
A59U U115A | 0.8
U62C A124U | 0.05
U62C C99U | 0.04
G60U A121G | 0
C61A | 0.04
C61G | 0.06
C61U | 0.04
G60C U109C | 0.1
U62C A121U | 0.04
U62C A121G | 0.1
C61U G114U | 0.01

Variant | self-cleavage
G60A A65U | 0.05
C61U A65C | 0.03
U62A U130A | 0.03
A59U U130A | 0.74
U62A C110U | 0.08
U62A C99A | 0.03
G60A U62C | 0.04
G60A U104C | 0.07
U62C C66A | 0.02
C61G A129C | 0.03
C61U U112G | 0.04
U62A C84U | 0.04
G60A A117G | 0.11
C61U U87C | 0.03
A59U U62G | 0.04
A59U U62C | 0.06
A59U U62A | 0.05
G60A A78U | 0.02
G60A A78G | 0.04
U62C C98A | 0.03
U62C C98U | 0.02
C61U A77U | 0.03
U62C C103A | 0.04
G60A A136G | 0.02

Variant | self-cleavage
U62A U85G | 0
U62A U85A | 0.02
U62A U85C | 0.08
G60A A142G | 0.04
C61A U104C | 0.04
C61U U81A | 0.02
U62C A142G | 0.06
U62A A65C | 0.07
C61U A107G | 0.03
G60A A129U | 0.02
G60A A64G | 0.04
A59U C103U | 0.5
G60U | 0.01
G60A | 0.02
G60C | 0.05
G60A C99A | 0.05
C61G A77G | 0.07
U62A U119A | 0.04
G60U U100A | 0.02
C61U U73G | 0.16
C61U U73A | 0.02
C61U A64U | 0.06
U62A G82A | 0.03
A59U U119C | 0.6

Variant | self-cleavage
C61G A67U | 0.04
U62C A129U | 0.01
U62C A129G | 0.06
A59U U104A | 0.81
A59U U81A | 1.53
A59U U81C | 0.87
U62A A124G | 0.02
G60A A67G | 0.08
U62C A77U | 0.03
U62C A77G | 0.08
U62A A78G | 0.05
U62A U81C | 0.04
U62A U81A | 0.05
A59U G114A | 0.54
U62A G86A | 0.05
U62C C110A | 0.05
U62A C120U | 0.02
U62C A107U | 0.06
G60U U85C | 0.03
G60A A124U | 0.02
U62A A69G | 0.02
U62A A69U | 0.05
U62C C95U | 0.03
C61A A140G | 0.05

Variant | self-cleavage
A59U U143A | 0.75
U62A G83A | 0.05
U62A U73C | 0.02
U62C C76U | 0.07
G60A U132C | 0.03
C61U U62G | 0.01
G60U A79G | 0.05
U62A A136G | 0.03
U62A A136U | 0.14
C61A U130A | 0.06
G60C U134A | 0.07
U62C A69U | 0.03
U62A G72A | 0.01
U62A G72C | 0.03
A59U U73C | 1.27
G60U U62C | 0.08
U62A A121U | 0.06
C61A A79G | 0.02
G60A U81A | 0.02
G60A U81C | 0.03
U62A U115C | 0.04
G60A A79G | 0.05
U62A A79U | 0.03
